The labels stand for the following.
T1: FtsZ (untagged, wild type) (Escherichia coli, UniProt P0A9A6 1-383)
T1 construct: also called wild-type FtsZ; source: E. coli BL21(DE3), plasmid pLY17, purified (Ni-NTA); 6×His-SUMO tag removed with Ulp1; not shown: 6×His-SUMO, N-terminal, cleaved
T1 sequence (looked up): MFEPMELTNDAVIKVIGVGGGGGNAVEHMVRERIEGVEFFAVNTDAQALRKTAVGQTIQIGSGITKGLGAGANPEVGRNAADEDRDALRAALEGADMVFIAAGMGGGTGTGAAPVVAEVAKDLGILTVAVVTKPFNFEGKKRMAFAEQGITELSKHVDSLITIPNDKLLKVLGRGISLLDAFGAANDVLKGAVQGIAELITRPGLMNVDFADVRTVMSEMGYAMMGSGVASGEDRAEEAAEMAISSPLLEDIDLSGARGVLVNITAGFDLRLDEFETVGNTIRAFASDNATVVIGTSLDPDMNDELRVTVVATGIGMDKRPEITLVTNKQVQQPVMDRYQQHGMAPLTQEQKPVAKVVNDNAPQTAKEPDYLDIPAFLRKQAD

T2: FtsZ^F285S (untagged) (Escherichia coli, UniProt P0A9A6 1-383, F285S)
T2 construct: FtsZ, Escherichia coli; source: E. coli BL21(DE3), derivative of pLY17, purified (Ni-NTA; 6×His-SUMO tag removed with Ulp1); not shown: 6×His, N-terminal, cleaved; SUMO, N-terminal, cleaved
T2 sequence (looked up): T1 sequence (looked up) with F285S

T3: SUMO-FtsZ (Escherichia coli, UniProt P0A9A6 1-383)
T3 construct: FtsZ, Escherichia coli; also called 6×His-SUMO-FtsZ; SUMO fusion containing full-length FtsZ; source: E. coli BL21(DE3), plasmid pLY17 (pE-SUMO-Amp, PT7::6×his-sumo-ftsZ), purified (Ni-NTA); not shown: 6×His, N-terminal, kept; SUMO, N-terminal, kept
T3 sequence (looked up): T1 sequence (looked up)

T4: 6×His-SUMO-FtsZ (Escherichia coli, UniProt P0A9A6 1-383)
T4 construct: FtsZ of Escherichia coli, full length, fused behind 6×His-SUMO; Forward primer BsaI-out-F starts the FtsZ insert at codon 2; source: E. coli BL21(DE3), plasmid pLY17, purified (Ni-NTA); not shown: 6×His-SUMO, N-terminal, kept
T4 sequence (looked up): T1 sequence (looked up)

B1: FtsZ^1–370 (domain or fragment, Escherichia coli, UniProt P0A9A6 1-370, looked up)
chain: MFEPMELTNDAVIKVIGVGGGGGNAVEHMVRERIEGVEFFAVNTDAQALRKTAVGQTIQIGSGITKGLGAGANPEVGRNAADEDRDALRAALEGADMVFIAAGMGGGTGTGAAPVVAEVAKDLGILTVAVVTKPFNFEGKKRMAFAEQGITELSKHVDSLITIPNDKLLKVLGRGISLLDAFGAANDVLKGAVQGIAELITRPGLMNVDFADVRTVMSEMGYAMMGSGVASGEDRAEEAAEMAISSPLLEDIDLSGARGVLVNITAGFDLRLDEFETVGNTIRAFASDNATVVIGTSLDPDMNDELRVTVVATGIGMDKRPEITLVTNKQVQQPVMDRYQQHGMAPLTQEQKPVAKVVNDNAPQTAKEPD
notes: FtsZ, Escherichia coli, residues 1-370; Plasmid construction is in the Supplemental Information; also called FtsZ lacking the CTP; source: E. coli BL21(DE3), SUMO-tag purification system, purified; not shown: 6×His, N-terminal, cleaved; SUMO, N-terminal, cleaved
B2: 6×His-ZapC F30D, K94D (natural protein)
chain: not shown
notes: ZapC of Escherichia coli with F30D and K94D; Derivative of pSD323 by site-directed mutagenesis; also called ZapC^F, K; -ZapCF, K; source: E. coli, plasmid pLY317 (pQE80L, Plac::6Xhis-zapC F30D, K94D), purified (Ni-NTA); not shown: His6, N-terminal, kept
B3: FtsZ (wild-type, untagged) (natural protein, Escherichia coli, UniProt P0A9A6 1-383, looked up)
chain: T1 sequence (looked up)
notes: FtsZ, Escherichia coli; Made from the same 6×his-sumo-ftsZ plasmid as the fusion that the methods call full-length FtsZ; also called wild-type FtsZ; untagged FtsZ; source: E. coli BL21(DE3), plasmid pLY17, purified (Ni-NTA; 6×His-SUMO tag removed with Ulp1); not shown: 6×His, N-terminal, cleaved; SUMO, N-terminal, cleaved
B4: 6×His-ZapC (natural protein)
chain: not shown
notes: ZapC, Escherichia coli; also called His-tagged ZapC; source: E. coli, plasmid pSD323 (pQE80, Plac::6×His-ZapC), purified (Ni-NTA) as for FtsZ; not shown: 6×His, N-terminal, kept
B5: 6×His-SUMO-FtsZ 316-383 (domain or fragment, Escherichia coli, UniProt P0A9A6 316-383, looked up)
chain: GMDKRPEITLVTNKQVQQPVMDRYQQHGMAPLTQEQKPVAKVVNDNAPQTAKEPDYLDIPAFLRKQAD
notes: source: E. coli BL21(DE3), plasmid pLY342, purified (Ni-NTA); not shown: 6×His-SUMO, N-terminal, kept
B6: SUMO-FtsZ^316-383 (domain or fragment, Escherichia coli, UniProt P0A9A6 316-383, looked up)
chain: B5 chain
notes: Held on Ni-NTA biosensors; plasmid construction is in the Supplemental Information; also called SUMO fusion containing the CTL and CTP; source: E. coli, purified SUMO fusion; not shown: 6×His, N-terminal, kept; SUMO, N-terminal, kept
B7: ZapC (untagged) (natural protein)
chain: not shown
notes: ZapC, Escherichia coli; also called untagged ZapC; source: E. coli, plasmid pLY28 (pE-SUMO-Amp, PT7::6×his-sumo-zapC), purified (Ni-NTA; 6×His-SUMO tag removed with Ulp1); not shown: 6×His, N-terminal, cleaved; SUMO, N-terminal, cleaved
B8: ZapC (untagged) (natural protein)
chain: not shown
notes: ZapC, FtsZ-associated protein of Escherichia coli; source: E. coli BL21(DE3), plasmid pLY28, purified (Ni-NTA); 6×His-SUMO tag removed with Ulp1; not shown: 6×His-SUMO, N-terminal, cleaved

Positions count from the first letter of the chain named. In names and notes the source's numbering stands. Several values for one entry are separate records, joined by “and”; a condition that tells them apart may be missing. Equal values may be shown once.

Common to all, as to conditions: both partners purified
The target in the experiment “6×His-ZapC” is B4. Nature of the experiment: BLI; 6×His-ZapC or its mutants (0.5 µM) loaded on Ni-NTA biosensors; FtsZ or its variants in solution; Octet-Red96, 30°C, 1× Pol buffer (50 mM HEPES-NaOH pH 6.8, 50 mM KCl, 10 mM MgCl2); apparent Kd from the signal at the end of association, one-site fit.
Experiment [1] concerns the target T1, FtsZ (untagged, wild type). In words: BLI; 6×His-ZapC or its mutants (0.5 µM) loaded on Ni-NTA biosensors, untagged FtsZ or its variants in solution; Octet-Red96, 30°C, 1× Pol buffer (50 mM HEPES-NaOH pH 6.8, 50 mM KCl, 10 mM MgCl2); apparent Kd from the signal at the end of association against concentration, one-site fit; three repeats with mean (X) and SD.
Experiment [2] deals with T5, 6×His-ZapC double mutant (F30D, K94D) (Escherichia coli, UniProt P75862 1-180, F30D | K94D).
T5 construct: ZapC, Escherichia coli; The text calls it only 'the double mutant' after naming ZapC^F30D and ZapC^K94D; also called the double mutant; source: E. coli, derivative of pSD323, purified (Ni-NTA) as for FtsZ; not shown: 6×His, N-terminal, kept
In words: BLI; 6×His-ZapC or its mutants (0.5 µM) loaded on Ni-NTA biosensors; FtsZ or its variants in solution; Octet-Red96, 30°C, 1× Pol buffer (50 mM HEPES-NaOH pH 6.8, 50 mM KCl, 10 mM MgCl2); apparent Kd from the signal at the end of association, one-site fit.

For experiment [3], the target named is B3. Described as above.
The target of a further experiment is T2, FtsZ^F285S (untagged). Described as above.
The target of experiment [4] is B8. Nature of the experiment: BLI; 6×His-SUMO fusions of FtsZ or its parts, or SUMO alone (0.5 µM), held on Ni-NTA biosensors, untagged ZapC in solution; Octet-Red96, 30°C, 1× Pol buffer (50 mM HEPES-NaOH pH 6.8, 50 mM KCl, 10 mM MgCl2); apparent Kd from the signal at the end of association against concentration, one-site fit; three repeats with mean (X) and SD.
Experiment [5] concerns the target B7. In words: BLI; SUMO fusions of FtsZ or its parts, or SUMO alone (0.5 µM), held on Ni-NTA biosensors; untagged ZapC in solution; Octet-Red96, 30°C, 1× Pol buffer; apparent Kd from the signal at the end of association, one-site fit.
A further experiment has as its target T3, SUMO-FtsZ. Described as above.
In another experiment the target is T4, 6×His-SUMO-FtsZ. In words: BLI; 6×His-SUMO fusions of FtsZ or its parts, or SUMO alone (0.5 µM), held on Ni-NTA biosensors, untagged ZapC in solution; Octet-Red96, 30°C, 1× Pol buffer (50 mM HEPES-NaOH pH 6.8, 50 mM KCl, 10 mM MgCl2); apparent Kd from the signal at the end of association against concentration, one-site fit; three repeats with mean (X) and SD.

For B1, in the experiment with 6×His-ZapC, the “fold decrease of affinity against wild-type FtsZ” value is around 3 fold.

On to B2, for which the Kd in experiment [1] was 6.39 µM and 5.16 µM and 4.77 µM and 5.44 µM.

B3: the “fold increase of Kd against wild-type ZapC” value in [2] was determined as 12 fold.

Turning to B4, the Kd in experiment [3] came to 0.39 µM; with FtsZ^F285S (untagged) it was 6.37 µM.

On to B5, for which the Kd with ZapC (untagged) [4] is 11.2 µM and 10.4 µM and 8.11 µM and 9.89 µM.

In the case of B6, the Kd in the experiment with ZapC (untagged) [5] worked out at 10 µM.

Take B7: in the experiment with SUMO-FtsZ, the Kd came to 1.5 µM.

As for B8, in the experiment with 6×His-SUMO-FtsZ, the Kd was 1.5 µM and 1.28 µM and 1.9 µM and 1.56 µM.

Source of the values: PMC12607630, “ZapC crosslinks FtsZ filaments through a dual-binding mechanism modulated by the intrinsically disordered linker of FtsZ in Escherichia coli” (mBio, 2025).
